Values of other authors in article PMC8698604.
Where two headings read alike, the source gives them in different places.

Columns and labels:
t-PA (Homo sapiens) [1] = target: t-PA (Homo sapiens) (UniProt P00750)
plasmin (Homo sapiens) [2] = target: plasmin (Homo sapiens) (UniProt P00747)
[3] = target: plasminogen (Homo sapiens) (UniProt P00747)
[4] = target: plasminogen (Homo sapiens) (UniProt P00747); experiment: fluorescence
plasmin (Homo sapiens) [5] = target: plasmin (Homo sapiens) (UniProt P00747); remark: listed apart in the source
t-PA (Homo sapiens) [6] = target: t-PA (Homo sapiens) (UniProt P00750); remark: listed apart in the source
plasmin (Homo sapiens) [7] = target: plasmin (Homo sapiens) (UniProt P00747); remark: listed apart in the source
[8] = target: plasminogen (Homo sapiens) (UniProt P00747); remark: listed apart in the source
fibrin (Homo sapiens) [9] = target: fibrin (Homo sapiens) (UniProt P02671)
fibrin (Homo sapiens) [10] = target: fibrin (Homo sapiens) (UniProt P02671); remark: listed apart in the source

Sequence of UniProt P00750 (P00750 36-562): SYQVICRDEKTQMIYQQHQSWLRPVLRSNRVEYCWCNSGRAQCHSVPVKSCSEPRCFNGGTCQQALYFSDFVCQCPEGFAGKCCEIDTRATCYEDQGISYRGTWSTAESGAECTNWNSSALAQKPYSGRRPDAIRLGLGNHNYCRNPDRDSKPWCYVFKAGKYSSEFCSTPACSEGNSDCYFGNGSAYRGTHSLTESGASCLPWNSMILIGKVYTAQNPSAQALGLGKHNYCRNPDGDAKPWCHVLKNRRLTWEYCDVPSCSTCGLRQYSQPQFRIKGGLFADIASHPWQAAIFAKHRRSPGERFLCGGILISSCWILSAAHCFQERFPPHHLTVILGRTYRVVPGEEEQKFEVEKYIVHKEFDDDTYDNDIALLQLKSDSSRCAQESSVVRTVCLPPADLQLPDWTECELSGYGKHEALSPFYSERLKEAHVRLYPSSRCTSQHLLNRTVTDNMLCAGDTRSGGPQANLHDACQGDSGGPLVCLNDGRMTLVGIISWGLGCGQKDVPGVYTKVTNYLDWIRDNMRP

In the case of “AIIt (ANXA2/S100A10) (from UniProt P07355)”, the Kd (t-PA (Homo sapiens) [1]) is listed as 680 nM, the Kd (plasmin (Homo sapiens) [2]) is listed as 75 nM and the Kd [3] is listed as 110 nM. For the same substance, the Kd [4] was 1000 nM.
For ANXA2 (from UniProt P07355), the Kd (plasmin (Homo sapiens) [5]) is listed as 780 nM.
For S100A10 (from UniProt P60903), the Kd (t-PA (Homo sapiens) [6]) is listed as 450 nM, the Kd (plasmin (Homo sapiens) [7]) is listed as 360 nM and the Kd [8] is listed as 1810 nM.
In the case of plasminogen (from UniProt P00747), the Kd (fibrin (Homo sapiens) [9]) is listed as 300 nM and the Kd (fibrin (Homo sapiens) [10]) is listed as 30000 nM.
